Patent US20210163900

System: T1, MTA1c (MTA1/MTA9/p1/p2 complex) (Tetrahymena thermophila)
T1 sequence 1: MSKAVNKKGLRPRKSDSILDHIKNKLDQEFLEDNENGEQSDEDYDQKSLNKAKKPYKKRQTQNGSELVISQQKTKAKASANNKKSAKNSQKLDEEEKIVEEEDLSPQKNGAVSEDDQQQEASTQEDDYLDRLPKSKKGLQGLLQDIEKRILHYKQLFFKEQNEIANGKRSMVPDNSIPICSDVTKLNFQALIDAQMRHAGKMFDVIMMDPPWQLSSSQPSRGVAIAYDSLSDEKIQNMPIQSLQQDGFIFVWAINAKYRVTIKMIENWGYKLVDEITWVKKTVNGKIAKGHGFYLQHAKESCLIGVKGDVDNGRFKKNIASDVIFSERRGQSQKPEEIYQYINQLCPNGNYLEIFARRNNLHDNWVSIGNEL
T1 sequence 2: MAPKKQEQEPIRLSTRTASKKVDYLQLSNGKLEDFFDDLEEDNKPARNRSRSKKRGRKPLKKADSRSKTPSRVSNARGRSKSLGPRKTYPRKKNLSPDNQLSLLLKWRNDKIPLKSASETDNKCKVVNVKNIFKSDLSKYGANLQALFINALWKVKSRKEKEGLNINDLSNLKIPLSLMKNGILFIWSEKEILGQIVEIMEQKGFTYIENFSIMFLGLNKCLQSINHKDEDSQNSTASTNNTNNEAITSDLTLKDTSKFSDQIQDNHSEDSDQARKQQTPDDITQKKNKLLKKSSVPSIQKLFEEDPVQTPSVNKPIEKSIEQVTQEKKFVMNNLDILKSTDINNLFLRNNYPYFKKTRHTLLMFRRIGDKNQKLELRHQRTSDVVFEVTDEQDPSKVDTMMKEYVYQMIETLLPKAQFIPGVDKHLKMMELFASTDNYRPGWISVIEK
T1 sequence 3: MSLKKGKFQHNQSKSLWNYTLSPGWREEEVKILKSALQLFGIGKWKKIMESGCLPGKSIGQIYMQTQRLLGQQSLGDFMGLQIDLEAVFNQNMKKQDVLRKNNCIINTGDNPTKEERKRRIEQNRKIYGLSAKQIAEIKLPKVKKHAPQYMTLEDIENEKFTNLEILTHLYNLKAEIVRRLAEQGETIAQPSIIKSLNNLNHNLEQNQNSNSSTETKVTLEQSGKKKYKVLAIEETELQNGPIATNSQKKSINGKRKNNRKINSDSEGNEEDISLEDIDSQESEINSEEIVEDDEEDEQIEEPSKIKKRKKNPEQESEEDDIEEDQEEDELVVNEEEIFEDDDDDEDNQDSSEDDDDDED
T1 sequence 4: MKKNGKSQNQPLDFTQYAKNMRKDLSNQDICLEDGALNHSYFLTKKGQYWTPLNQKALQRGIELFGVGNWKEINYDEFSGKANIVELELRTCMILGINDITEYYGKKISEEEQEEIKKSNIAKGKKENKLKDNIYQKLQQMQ
Conditions: [3H]SAM assay, reference substrate

27 bp dsDNA with two ApT motifs
activity (relative activity): 1
